Substrate in the data set: NC(=O)N[C@H]1NC(=O)NC1=O
The data set can be described thus: purified protein. Type of data set: biochemical, Klebsiella pneumoniae. To be noted: 10 mM NaCl, 10 mM HEPES, pH 7.5, 25 °C, no cofactor or metal.

Here are results for 1 protein from publication PMC3129624.

B1: KpHpxA (K. pneumoniae allantoin racemase) (Klebsiella pneumoniae subsp. pneumoniae MGH 78578) (protein)
chain: MSSVRIQVINPNTSLAMTETIGAAARAVAAPGTEILAVCPRAGVPSIEGHFDEAIAAVGVLEQIRAGREQGVDGHVIACFGDPGLLAARELAQGPVIGIAEAAMHMATMVATRFSIVTTLPRTLIIARHLLHQYGFHQHCAALHAIDLPVLALEDGSGLAQEKVRERCIRALKEDGSGAIVLGCGGMATLAQELTRELRVPVIDGVSAAVKMVESLVALGLATSKHGDLAFPEKKALSGQFQSLNPF
As usually defined, the kcat is the maximal rate divided by the concentration of active sites. In the case of B1, the kcat is 183 ± 17 s⁻¹.
